Sequences and labels used below:
B1: OR4K15 (parent)
chain: GUUAACGGUCAUAGGCCAUGGAAACUAGGAGCACCAUUUCGCUGCCAGUGAAGAAAUGAACAAAGAAAAUCUGGGCCAGGCAGGCAUCAAAAGAAAUAGUCUUGCGCUCAACCAGAAAGUCUGUAAUCAUUUUAAGGGUA

This passage reports self-cleavage results from the RNAGym collection of RNA variant scans (doi:10.7554/elife.90254).

In this series the parent is B1. Briefly: self-cleavage, relative activity (ratio to wild type); higher = more cleavage; in vitro, sequencing; the parent is a self-cleaving ribozyme.
Consider GUUAACGGUCAUAGGCCAUGGAAACUUGGAGCACCAUUUCGCUGCCAGUGAUGAAAUGAACAAAGAAAAUCUGGGCCAGGCAGGCAUCAAAAGAAAUAGUCUUGCGCUCAACCAGAAAGUCUGUAAUCAUUUUAAGGGUA [A27U A52U], for which the self-cleavage worked out at 2.
In the case of GUUAACGGUCAUAGGCCAUGGAAACUUGGAGCACCAUUUCGCUGCCAGUGAAGAAAUGAACAAAGAAAAUCUGGGCCAGGCAGGCAUCAAAAGAAAUAGUCUUGCGCUCAACCAGAAAGUCUGUAAUCAUUUUAAGGGUA [A27U], the self-cleavage amounted to 0.91.
The same measure for GUUAACGGUCAUAGGCCAUGGAAACUGGGAGCACCAUUUCGCUGCCAGUGAAGAAAUGAACAAAGAAAAUCUGGGCCAGGCAGGCAUCAAAAGAAAUAGUCUUGCGCUCAACCAGAAAGUCUGUAAUCAUUCUAAGGGUA [A27G U132C]: 0.79.
The same measure for GUUAACGGUCAUAGGCCAUGGAAACUUGGAGCACCAUUUCGCUGCCAGUGAAGAAAUGAACAAAGAAAAUCUGGGCCAGGCAGGCAUCAAAAGAAACAGUCUUGCGCUCAACCAGAAAGUCUGUAAUCAUUUUAAGGGUA [A27U U97C]: 1.75; for GUUAACGGUCAUAGGCCAUGGAAACUUGGAGCACCAUUUCGCUGCCAGUGAAGAAACGAACAAAGAAAAUCUGGGCCAGGCAGGCAUCAAAAGAAAUAGUCUUGCGCUCAACCAGAAAGUCUGUAAUCAUUUUAAGGGUA [A27U U57C]: 1.25; for GUUAACGGUCAUAGGCCAUGGAAACUUGGAGCACCAUCUCGCUGCCAGUGAAGAAAUGAACAAAGAAAAUCUGGGCCAGGCAGGCAUCAAAAGAAAUAGUCUUGCGCUCAACCAGAAAGUCUGUAAUCAUUUUAAGGGUA [A27U U38C]: 1.83.
To GUUAACGGUCAUAGGCCAUGGAAACUUGGAGCACCAUUUCGCUGCCAGUGAAGAAAUGAACAAAGAAAAUCUGGGCCAGGCAGGCAUCAAAAGAAAUAGUCUUGCGCUCAACCAGAAAGUCCGUAAUCAUUUUAAGGGUA [A27U U122C] belongs 1.42; to GUUAACGGUCAUAGGCCAUGGAAACUAAGAGCACCAUUUCGCUGCCAGUGAUGAAAUGAACAAAGAAAAUCUGGGCCAGGCAGGCAUCAAAAGAAAUAGUCUUGCGCUCAACCAGAAAGUCUGUAAUCAUUUUAAGGGUA [G28A A52U], 1.15; to GUUAACGGUCAUAGGCCAUGGAAACUAAGAGCACCAUUUCGCUGCCAGUGAAGAAAUGAACAAAGAAAAUCUGGGCCAGGCAGGCAUUAAAAGAAAUAGUCUUGCGCUCAACCAGAAAGUCUGUAAUCAUUUUAAGGGUA [G28A C88U], 2.33.
As for GUUAACGGUCAUAGGCCAUGGAAACUUGGAGCACCAUUUCGCUGCCAGUGAAGAAAUGAACAAAGAAAAUCUGGGCCAUGCAGGCAUCAAAAGAAAUAGUCUUGCGCUCAACCAGAAAGUCUGUAAUCAUUUUAAGGGUA [A27U G79U], the self-cleavage amounted to 0.09.
To GUUAACGGUCAUAGGCCAUGGAAACUUGGAGCACCAUUUCGCUGCCAGUGAAGAAAUGUACAAAGAAAAUCUGGGCCAGGCAGGCAUCAAAAGAAAUAGUCUUGCGCUCAACCAGAAAGUCUGUAAUCAUUUUAAGGGUA [A27U A59U] belongs 1.64.
In the case of GUUAACGGUCAUAGGCCAUGGAAACUAAGAGCACCAUUUCGCUGCCAGUGAAGAAAUGAACAAAGAAAAACUGGGCCAGGCAGGCAUCAAAAGAAAUAGUCUUGCGCUCAACCAGAAAGUCUGUAAUCAUUUUAAGGGUA [G28A U70A], the self-cleavage worked out at 1.02.
To GUUAACGGUCAUAGGCCAUGGAAACUGGGAGCACCAUUUCGCUGCCAGUGAAGAAAUGAACAAAGAAAAUCUGGGCCAGGCAGGCAUCAAAAGAAAUAGUCUUGCGCUCAACCAGAAAGUCUGUAAUCAUUUUAAGGGCA [A27G U139C] belongs 1.05.
As to GUUAACGGUCAUAGGCCAUGGAAACUUGGAGCACCAUUUCGCUGCCAGUGAAGAAAUGAAUAAAGAAAAUCUGGGCCAGGCAGGCAUCAAAAGAAAUAGUCUUGCGCUCAACCAGAAAGUCUGUAAUCAUUUUAAGGGUA [A27U C61U], the self-cleavage is 0.58.
The same measure for GUUAACGGUCAUAGGCCAUGGAAACUUGGAGCACCACUUCGCUGCCAGUGAAGAAAUGAACAAAGAAAAUCUGGGCCAGGCAGGCAUCAAAAGAAAUAGUCUUGCGCUCAACCAGAAAGUCUGUAAUCAUUUUAAGGGUA [A27U U37C]: 1.42; for GUUAACGGUCAUAGGCCAUGGAAACUUGGAGCACCAUUUCGCUUCCAGUGAAGAAAUGAACAAAGAAAAUCUGGGCCAGGCAGGCAUCAAAAGAAAUAGUCUUGCGCUCAACCAGAAAGUCUGUAAUCAUUUUAAGGGUA [A27U G44U]: 2.13.
With GUUAACGGUCAUAGGCCAUGGAAACUUGGAGCACCAUUUCGCUGCCAGUGAAGGAAUGAACAAAGAAAAUCUGGGCCAGGCAGGCAUCAAAAGAAAUAGUCUUGCGCUCAACCAGAAAGUCUGUAAUCAUUUUAAGGGUA [A27U A54G], the self-cleavage is 1.64.
To GUUAACGGUCAUAGGCCAUGGAAACUGGGAGCACCAUUUCGCUGCCAGUGAAGAAAUGAACAAAGAAAAUCUGGGCCAGGCAGGCAUCAAAAGAAAUAGUCUUGCGCUCAACCAGAAAGUCUGUAAUCAUGUUAAGGGUA [A27G U131G] belongs 1.09; to GUUAACGGUCAUAGGCCAUGGAAACUUGGAGCACCAUUUCGCUGCCAGUGAAGAAAUGAACAAAGAAAAUCUGGGCCAGGCAGGCAUCAAAAGAAAUAGUCUUGCGCUCAACCAAAAAGUCUGUAAUCAUUUUAAGGGUA [A27U G115A], 0.07.
The same measure for GUUAACGGUCAUAGGCCAUGGAAACUAAGAGCGCCAUUUCGCUGCCAGUGAAGAAAUGAACAAAGAAAAUCUGGGCCAGGCAGGCAUCAAAAGAAAUAGUCUUGCGCUCAACCAGAAAGUCUGUAAUCAUUUUAAGGGUA [G28A A33G]: 0.69; for GUUAACGGUCAUAGGCCAUGGAAACUUGGAGCACCAUUUCGCUGCCAGUGAAGAAAUGAACAAAGAAAAUCUGGGCCAGGCAGGCAUCAAAAGAAAUAGUCUUGCGCUCAACCUGAAAGUCUGUAAUCAUUUUAAGGGUA [A27U A114U]: 0.14.
In the case of GUUAACGGUCAUAGGCCAUGGAAACUUGGAGCACCAUUUCGCUGCCAGUGAAGAAAUGAACAAGGAAAAUCUGGGCCAGGCAGGCAUCAAAAGAAAUAGUCUUGCGCUCAACCAGAAAGUCUGUAAUCAUUUUAAGGGUA [A27U A64G], the self-cleavage amounted to 1.58.
To GUUAACGGUCAUAGGCCAUGGAAACUAAGAGCACCAUUUCGCUGCCAGUGAAGAAAUGAACAAAGAAAAUCUGGGCCAGGCAGGCAUCAAAAGAAAUAGUCUUGCGCACAACCAGAAAGUCUGUAAUCAUUUUAAGGGUA [G28A U108A] belongs 0.01; to GUUAACGGUCAUAGGCCAUGGAAACUUGGAGCACCAUUUCGCUGCCAGUGAAGAAAUGAACAAAGAAAAUCUGGGCCAGGCAGGCAUCAGAAGAAAUAGUCUUGCGCUCAACCAGAAAGUCUGUAAUCAUUUUAAGGGUA [A27U A90G], 0.74.
Turning to GUUAACGGUCAUAGGCCAUGGAAACUUGGAGCACCAUUUCGCUGCCAGUGAAGAAAUGAACAAAGAAAAUCUGGGCCAGGCAGGCAUCAAAAGAAAUAGUCUUGCGCUCAACCAGAAAGUCUGUAAUCACUUUAAGGGUA [A27U U130C], the self-cleavage came out at 1.07.
To GUUAACGGUCAUAGGCCAUGGAAACUUGGAGCACCAUUUCGCUGCCAGUGAAGAAAUGAACAAAGAAAAUCUGGGCCAGGCAGGCAUCAAAAGAAAUAGUCUUGCGCUCAACCAGAAAGUCUGUAAUCAUUCUAAGGGUA [A27U U132C] belongs 1.39.
To GUUAACGGUCAUAGGCCAUGGAAACUAAGAGCACCAUUUCGCUGCCAGUGAAGAAAUGAACAAAGAAAAUCUGGGCCAGGCAGGCAUCAAGAGAAAUAGUCUUGCGCUCAACCAGAAAGUCUGUAAUCAUUUUAAGGGUA [G28A A91G] belongs 1.19; to GUUAACGGUCAUAGGCCAUGGAAACUAAGAGCACCAUUUCGCUGCCAGUGAAGAAAUGAACAAAGAAAAUCUGGGCCAGGCAGGCAUCAAAAGAAAUAGUCCUGCGCUCAACCAGAAAGUCUGUAAUCAUUUUAAGGGUA [G28A U102C], 0.81; to GUUAACGGUCAUAGGCCAUGGAAACUUGGAGCACCAUUUCGCUGCCAGUGAAGAAAUGAACAAAGAAAAUCUGGGCCAGGCAGGCAUCAAAAGAAAUAGUCUUGCGCUCAACCAGAAAGUCUGUAAUCAUUUUGAGGGUA [A27U A134G], 1.3.
With GUUAACGGUCAUAGGCCAUGGAAACUAAGAGCACCAUUUCGCUGCCAGUGAAGAAAUGAACAAGGAAAAUCUGGGCCAGGCAGGCAUCAAAAGAAAUAGUCUUGCGCUCAACCAGAAAGUCUGUAAUCAUUUUAAGGGUA [G28A A64G], the self-cleavage worked out at 1.4.
To GUUAACGGUCAUAGGCCAUGGAAACUUGGAGCACCAUUUCGCUGCCAGUGAAGAAAUGAACAAAGAAAAACUGGGCCAGGCAGGCAUCAAAAGAAAUAGUCUUGCGCUCAACCAGAAAGUCUGUAAUCAUUUUAAGGGUA [A27U U70A] belongs 1.68.
GUUAACGGUCAUAGGCCAUGGAAACUAAGAGCACCAUUUCGCUGCCAGUGAAGAAAUGAACAAAGAAAAUCUGGGCCAGGCAGGCAUCAAAAGAAAUAGUCUUGCGCUCAACCUGAAAGUCUGUAAUCAUUUUAAGGGUA [G28A A114U]: the self-cleavage was found to be 0.18.
The same measure for GUUAACGGUCAUAGGCCAUGGAAACUAAGAGCACCAUUUCGCUGCCAGUGAAGAGAUGAACAAAGAAAAUCUGGGCCAGGCAGGCAUCAAAAGAAAUAGUCUUGCGCUCAACCAGAAAGUCUGUAAUCAUUUUAAGGGUA [G28A A55G]: 1.7; for GUUAACGGUCAUAGGCCAUGGAAACUUGGAGCACCAUUUCGCUGCCAGUGAAGAAGUGAACAAAGAAAAUCUGGGCCAGGCAGGCAUCAAAAGAAAUAGUCUUGCGCUCAACCAGAAAGUCUGUAAUCAUUUUAAGGGUA [A27U A56G]: 1.21; for GUUAACGGUCAUAGGCCAUGGAAACUUGGAGCACCAUUUCGCUGCCAGUGAAGAAAUGAACAAAGAAAAUCUGGGCCAGGCAGGCAUCAAAAGAAAUAGUCUUGCGCUCAACCAGAAAGUCUGUAAUCAUUUUAAGGGCA [A27U U139C]: 1.56.
To GUUAACGGUCAUAGGCCAUGGAAACUUGGAGCACCAUUUCGCUGCCAGUGAAGAAAUGAACAAAGAAAAUCUGGGCCAGGCAGGCAUCAAAAGAAAUAGUCUUGCGCUCAACCAGAAAGCCUGUAAUCAUUUUAAGGGUA [A27U U120C] belongs 0.85; to GUUAACGGUCAUAGGCCAUGGAAACUAAGAGCACCAUUUCGCUGCCAGUGAAGAAAUGAACAAAGAAAAUCUGGGCCAGGCAGGCAUCAAAAGAAAUAGUCUUGCGCUCAACCAGAAAGUCUGUAAUCAUUUUAAGGGUG [G28A A140G], 2; to GUUAACGGUCAUAGGCCAUGGAAACUAAGAGCACCAUUUCGCUGCCAGUGAAGAAAUGAACAAAGAAAAUCUGGGCCAGGCAGGCAUCAAAAGAAAUAGUCUUGCGCUCAACCAGAAAGCCUGUAAUCAUUUUAAGGGUA [G28A U120C], 1.28.
The same measure for GUUAACGGUCAUAGGCCAUGGAAACUGGGAGCACCAUUUCGCUGCCAGUGAAGAAAUGAACAAAGAAAAUCUGGGCCAGGCAGGCAUCAAAAGAAAUAGUCUUGCGCUCAACCAGAAAGUCUGCAAUCAUUUUAAGGGUA [A27G U124C]: 0.9; for GUUAACGGUCAUAGGCCAUGGAAACUUGGAGCACCAUUUCGCUGCCAGUGAAGAAAUGAACGAAGAAAAUCUGGGCCAGGCAGGCAUCAAAAGAAAUAGUCUUGCGCUCAACCAGAAAGUCUGUAAUCAUUUUAAGGGUA [A27U A62G]: 1.61.
Turning to GUUAACGGUCAUAGGCCAUGGAAACUGGGAGCACCAUUUCGCUGCCAGUGAAGAAAUGAACAAAGAAAAUCUGGGCCAGGCAGGCAUCAAAAGAAAUAGUCUUGCGCUCAACCAGAAAGUCUGUAAUCAUUUCAAGGGUA [A27G U133C], the self-cleavage stood at 1.58.
